The source of these data is US20210395392A1 (Bristol-Myers Squibb, published 2021).

The target in assay [1] is T1, Recombinant soluble extracellular domain of human MerTK (human, UniProt Q12866 21-505).
T1 construct: SPR analyte; also called hMerTK
T1 sequence: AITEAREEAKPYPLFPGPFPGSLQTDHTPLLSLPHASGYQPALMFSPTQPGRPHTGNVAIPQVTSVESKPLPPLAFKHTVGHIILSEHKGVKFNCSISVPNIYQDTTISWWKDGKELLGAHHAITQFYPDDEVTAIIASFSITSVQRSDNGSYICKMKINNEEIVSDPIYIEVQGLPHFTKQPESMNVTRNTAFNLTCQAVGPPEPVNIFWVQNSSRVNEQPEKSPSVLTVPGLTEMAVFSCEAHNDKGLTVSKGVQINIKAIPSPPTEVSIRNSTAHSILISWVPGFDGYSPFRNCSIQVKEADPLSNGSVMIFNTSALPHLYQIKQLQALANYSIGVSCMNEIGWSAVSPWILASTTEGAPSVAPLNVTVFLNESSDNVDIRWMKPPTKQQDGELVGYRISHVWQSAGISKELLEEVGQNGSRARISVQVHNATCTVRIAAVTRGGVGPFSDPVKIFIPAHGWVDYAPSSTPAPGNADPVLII
Put plainly: SPR, soluble MerTK ECD; format for mouse mAbs not detailed. In general terms: SPR reads the build-up and loss of mass on a sensor chip optically.

The target of assay [2] is T2, Recombinant soluble extracellular domain of mouse MerTK (mouse, UniProt Q60805 19-497).
T2 construct: SPR analyte; also called mMerTK
T2 sequence: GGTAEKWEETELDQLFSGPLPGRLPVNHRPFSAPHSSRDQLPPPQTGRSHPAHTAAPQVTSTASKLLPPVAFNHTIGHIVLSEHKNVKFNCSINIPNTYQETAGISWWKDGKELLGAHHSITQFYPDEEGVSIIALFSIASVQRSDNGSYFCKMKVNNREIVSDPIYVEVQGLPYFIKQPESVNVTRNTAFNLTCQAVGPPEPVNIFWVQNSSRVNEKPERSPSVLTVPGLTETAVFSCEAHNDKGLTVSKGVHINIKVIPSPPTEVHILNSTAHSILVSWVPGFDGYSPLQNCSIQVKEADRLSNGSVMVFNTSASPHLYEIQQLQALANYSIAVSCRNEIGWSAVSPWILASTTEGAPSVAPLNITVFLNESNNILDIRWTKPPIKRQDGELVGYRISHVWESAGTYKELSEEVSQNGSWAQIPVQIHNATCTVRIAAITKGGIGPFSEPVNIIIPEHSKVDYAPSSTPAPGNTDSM
Described as above.

Assay [3] deals with T3, Recombinant soluble extracellular domain of cynomolgus monkey MerTK (cynomolgus monkey, UniProt Q12866 21-505 (human entry)).
T3 construct: SPR analyte; also called cMerTK; Cynomolgus MerTK
T3 chain: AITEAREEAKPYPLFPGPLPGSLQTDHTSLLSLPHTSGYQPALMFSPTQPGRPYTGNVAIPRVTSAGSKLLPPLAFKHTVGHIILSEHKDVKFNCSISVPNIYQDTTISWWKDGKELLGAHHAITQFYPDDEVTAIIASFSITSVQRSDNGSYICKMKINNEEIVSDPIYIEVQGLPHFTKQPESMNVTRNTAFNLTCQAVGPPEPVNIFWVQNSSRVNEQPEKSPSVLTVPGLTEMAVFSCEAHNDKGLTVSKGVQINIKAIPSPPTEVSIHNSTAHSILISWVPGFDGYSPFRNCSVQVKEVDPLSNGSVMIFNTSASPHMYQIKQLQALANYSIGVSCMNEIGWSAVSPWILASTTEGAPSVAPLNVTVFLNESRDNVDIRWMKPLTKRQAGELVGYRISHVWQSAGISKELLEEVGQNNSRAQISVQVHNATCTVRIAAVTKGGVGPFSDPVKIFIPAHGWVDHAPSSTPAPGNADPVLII
The assay is described as above.

Assay [4] addresses T4, Human MerTK on hMerTK-expressing cells (human, UniProt Q12866 21-999).
T4 sequence: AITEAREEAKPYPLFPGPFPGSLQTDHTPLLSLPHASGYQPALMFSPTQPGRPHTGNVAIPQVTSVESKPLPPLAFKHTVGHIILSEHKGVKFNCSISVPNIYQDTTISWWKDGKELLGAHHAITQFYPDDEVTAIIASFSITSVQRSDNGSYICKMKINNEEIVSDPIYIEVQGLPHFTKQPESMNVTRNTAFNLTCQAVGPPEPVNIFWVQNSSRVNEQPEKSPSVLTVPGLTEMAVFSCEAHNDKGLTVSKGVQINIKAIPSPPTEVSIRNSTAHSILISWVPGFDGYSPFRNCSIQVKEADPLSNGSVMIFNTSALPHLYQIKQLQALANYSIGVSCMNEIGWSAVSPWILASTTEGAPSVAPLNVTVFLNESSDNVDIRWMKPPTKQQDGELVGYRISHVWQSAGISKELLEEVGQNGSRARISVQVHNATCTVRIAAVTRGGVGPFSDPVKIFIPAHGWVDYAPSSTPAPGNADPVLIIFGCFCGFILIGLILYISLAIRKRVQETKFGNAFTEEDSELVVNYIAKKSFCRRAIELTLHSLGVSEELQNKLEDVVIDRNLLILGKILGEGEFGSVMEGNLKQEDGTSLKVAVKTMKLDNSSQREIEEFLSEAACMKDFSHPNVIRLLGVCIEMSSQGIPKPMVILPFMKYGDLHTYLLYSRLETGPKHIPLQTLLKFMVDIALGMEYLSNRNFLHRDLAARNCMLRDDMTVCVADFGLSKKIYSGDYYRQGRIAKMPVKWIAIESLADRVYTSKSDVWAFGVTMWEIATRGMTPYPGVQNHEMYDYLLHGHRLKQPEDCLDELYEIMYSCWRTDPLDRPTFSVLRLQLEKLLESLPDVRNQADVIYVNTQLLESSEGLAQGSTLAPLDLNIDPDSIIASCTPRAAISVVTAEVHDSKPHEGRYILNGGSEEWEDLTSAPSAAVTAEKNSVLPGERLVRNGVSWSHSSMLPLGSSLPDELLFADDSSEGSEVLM
Put plainly: cell-based or functional assay.

For assay [5], the target named is T5, Mouse MerTK on mMerTK-expressing cells (mouse, UniProt Q60805 19-994).
T5 sequence: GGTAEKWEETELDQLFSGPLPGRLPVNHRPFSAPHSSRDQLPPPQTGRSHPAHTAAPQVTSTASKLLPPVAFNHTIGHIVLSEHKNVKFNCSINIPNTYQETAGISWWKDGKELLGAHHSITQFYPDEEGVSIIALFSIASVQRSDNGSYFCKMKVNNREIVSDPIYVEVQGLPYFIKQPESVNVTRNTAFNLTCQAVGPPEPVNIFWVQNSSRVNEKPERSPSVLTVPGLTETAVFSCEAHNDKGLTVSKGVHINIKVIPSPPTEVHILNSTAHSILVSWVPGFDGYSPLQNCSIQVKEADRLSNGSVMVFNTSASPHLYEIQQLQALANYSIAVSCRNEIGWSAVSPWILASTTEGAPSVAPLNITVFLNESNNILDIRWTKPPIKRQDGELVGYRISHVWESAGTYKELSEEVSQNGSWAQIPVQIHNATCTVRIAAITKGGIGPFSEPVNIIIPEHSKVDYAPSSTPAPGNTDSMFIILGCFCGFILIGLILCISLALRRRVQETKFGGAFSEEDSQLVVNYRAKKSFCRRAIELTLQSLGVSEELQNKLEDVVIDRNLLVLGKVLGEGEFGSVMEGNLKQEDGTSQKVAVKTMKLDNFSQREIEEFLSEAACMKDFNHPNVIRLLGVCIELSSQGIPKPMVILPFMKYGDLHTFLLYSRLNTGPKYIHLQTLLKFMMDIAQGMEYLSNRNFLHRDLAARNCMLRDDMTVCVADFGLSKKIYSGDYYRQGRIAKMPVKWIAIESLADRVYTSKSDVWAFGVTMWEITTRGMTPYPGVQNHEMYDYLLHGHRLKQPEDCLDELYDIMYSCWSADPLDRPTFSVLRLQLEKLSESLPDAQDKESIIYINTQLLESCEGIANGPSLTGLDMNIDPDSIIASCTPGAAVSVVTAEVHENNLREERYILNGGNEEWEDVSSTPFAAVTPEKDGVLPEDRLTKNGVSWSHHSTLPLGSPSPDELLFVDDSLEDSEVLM
Nature of the assay: cell-based or functional assay.

Assay [6] has as its target T1, Recombinant soluble extracellular …. Nature of the assay: SPR, mAb captured, soluble MerTK ECD as analyte, 37 C. The procedure: (§1) MerTK Abs were captured on the chip. Recombinant soluble forms of the extracellular domains of human, cynomolgus monkey, and mouse MerTK polypeptide were injected as analytes at multiple concentrations each. The resulting sensorgrams were double-referenced and fitted to a 1:1 Langmuir binding model with mass transport.

Assay [7] deals with T2, Recombinant soluble extracellular …. Described as above. As to the method: as §1
Assay [8] concerns the target T3, Recombinant soluble extracellular …. The description is as above. As to the method: as §1

B1: MoMAb 2D9 (antibody, V domains shown)
VH: QVQLKESGPGLVAPSQSLSITCTVSGISLSSFAISWVRQPPGKGLEWLGVIWTGGGTDYNSALKSRLTISKDTSKNQVFLKMNSLQTDDTARYYCASHWYLDVWGTGTTVTVSS
VL: QAVVTQESALTTSPGETVTLTCRSSTGAVSTSNYANWVQEKPDHLFTGLIGGANSRAPGIPARFSGSLIGDKAALTITGAQTEDEAIYFCALWFSNHWVFGGGTKLTVL
notes: Mouse mAb; Bin 2
As to B1, in assay [1], the koff was 0.00064 s⁻¹ and the t1/2 worked out at 18.2 min. Moreover, in assay [2], the Kd came out at 3.2 nM, the koff came to 0.000403 s⁻¹, the kon worked out at 126000 M⁻¹ s⁻¹ and the t1/2 worked out at 28.7 min. Also, in assay [3], the Kd is 12 nM, the koff came to 0.00064 s⁻¹, the kon was 53300 M⁻¹ s⁻¹ and the t1/2 turned out to be 18 min. Besides, in assay [4], the “Inhibition of Efferocytosis IC50” value stood at 0.528 nM; the “Signaling Assay, hMerTK with Gas6, pSTAT1 IC50 (nM)” value (“Signaling Assay, hMerTK with Gas6” below) was determined as 1.44 nM; the “Signaling Assay, hMerTK without Gas6, pSTAT1 IC50 (nM)” value was greater than 100 nM. Also, in assay [5], the “Signaling Assay, mMerTK with Gas6, pSTAT1 IC50 (nM)” value was determined as 2.07 nM.

B2: Humanized MAb 2L105 (antibody, human IgG1, lambda, V domains shown)
VH: QVTLKESGPVLVKPTETLTLTCTVSGISLSSFAISWIRQPPGKALEWLAVIWTGGGTDYNSALKSRLTISKDTSKSQVVLTMTNMDPVDTATYYCASHWYLDVWGQGTTVTVSS
VL: QTVVTQEPSFSVSPGGTVTLTCRSSTGAVSTSNYANWVQQTPGQAPRGLIGGANSRAPGIPDRFSGSILGNKAALTITGAQADDESDYYCALWFSNHWVFGGGTKLTVLG
notes: Humanized variant of moMAb 2D9, Bin 2
Regarding B2, in assay [6], the Kd turned out to be 24.8 nM, the koff amounted to 0.00146 s⁻¹, the kon amounted to 58900 M⁻¹ s⁻¹ and the t1/2 turned out to be 7.9 min. Also, in assay [7], the Kd came to 13.7 nM, the off-rate (koff) amounted to 0.00123 s⁻¹, the kon was determined as 89500 M⁻¹ s⁻¹ and the t1/2 is 9.4 min. Besides, in assay [8], the Kd was 27 nM, the koff was determined as 0.00151 s⁻¹, the kon came out at 55900 M⁻¹ s⁻¹ and the t1/2 amounted to 7.7 min. In addition, the “Signaling Assay, hMerTK with Gas6” value in assay [4] amounted to 1.37 nM.

B3: HuMAb 10K11 (antibody, human IgG1, kappa, V domains shown)
VH: QLQLQESGPGLVKPSETLSLTCAVSGYSISSDYSWGWIRQPPGKGLEWIGSIYHSGNTYFNPSLKSRVTISVDTSKNQFSLKLSSVTAADTAVYYCARDKSYYFGPGSMDVWGQGTTVTVSS
VL: AIQLTQSPSSLSASVGDRVTITCRASQGISSALAWYQQKPGKAPKLLIYDASSLESGVPSRFSGSGSGTDFTLTISSLQPEDFATYYCQQFKSYLTFGQGTRLEIKR
notes: Human anti-hMerTK mAb, Bin 1
With B3, in assay [6], the Kd came out at 9 nM, the koff is 0.00117 s⁻¹, the kon turned out to be 132000 M⁻¹ s⁻¹ and the t1/2 came to 9.9 min. Besides, in assay [8], the Kd came out at 22.5 nM, the koff is 0.00235 s⁻¹, the kon turned out to be 108000 M⁻¹ s⁻¹ and the t1/2 turned out to be 4.9 min. Also, in assay [4], the “Inhibition of Efferocytosis IC50” value amounted to 0.169 nM; the “Signaling Assay, hMerTK with Gas6” value stood at 1.13 nM; the “Signaling Assay, hMerTK without Gas6, pSTAT1 IC50 (nM)” value is greater than 100 nM.

B4: Humanized mAb 4M60 (antibody, human IgG1, kappa, V domains shown)
VH: QVQLVQSGSELKKPGASVKVSCKASGNTFTTYGMSWVRQAPGQGLEWMGWINNYSGVSTYADDFKGRFVFSLDTSVSTAYLQISSLKAEDTAVYYCARDYYGSGGWVFDYWGQGTTVTVSS
VL: DVVMTQSPLSLPVTLGQPASISCKSSQSLLDSEGKTYLNWLQQRPGQSPRRLMYLVSKLDSGVPDRFSGSGSGTDFTLKISRVEAEDVGVYYCWQGTHFPRTFGGGTKVEIKR
notes: Humanized variant of moMAb 4E9, Bin 2
B4: in assay [6], the Kd amounted to 50.8 nM, the koff was found to be 0.00134 s⁻¹, the kon is 26400 M⁻¹ s⁻¹ and the t1/2 came to 8.6 min. Also, in assay [7], the Kd is 47.1 nM, the koff turned out to be 0.00249 s⁻¹, the association rate constant (kon) is 52900 M⁻¹ s⁻¹ and the t1/2 turned out to be 4.6 min. In assay [8], the Kd worked out at 42.5 nM, the koff was 0.00137 s⁻¹, the kon amounted to 32200 M⁻¹ s⁻¹ and the t1/2 was 8.4 min. Further, the “Signaling Assay, hMerTK with Gas6” value in assay [4] came to 8.88 nM.

By koff is commonly meant a measure of how fast the partners let go of each other. For orientation: Kd means a measure of binding affinity in units of concentration. The kon is the rate constant with which the complex forms.
